Usually stoichiometry N stands for the number of molecules, sites or subunits per partner or assembly. Broadly, the Kd is the concentration at which binding is half-saturated.

Here are results for 6 molecules from paper PMC3479211.

The target of data set [1] is mutant His-p32 (K89A/K93A) (mouse) (UniProt O35658). The data set can be described thus: SEC. For orientation: SEC sorts molecules by how far they enter the pores of the column.
Data set [2] addresses wild-type His-p32 (mouse) (UniProt O35658). The data set can be described thus: SEC.
For data set [3], the target named is T1, p32 (gC1qR) wild-type (Mus musculus, UniProt Q8R5L1 72-279).
T1 sequence: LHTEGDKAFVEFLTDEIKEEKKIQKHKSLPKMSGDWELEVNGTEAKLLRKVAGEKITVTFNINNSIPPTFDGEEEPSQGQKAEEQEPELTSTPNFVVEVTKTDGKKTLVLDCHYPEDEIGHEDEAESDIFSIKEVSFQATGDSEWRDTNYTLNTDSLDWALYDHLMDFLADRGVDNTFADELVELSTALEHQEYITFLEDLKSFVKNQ
The data set can be described thus: EMSA. On the technique in general: In EMSA bound probe runs differently from free probe, usually more slowly.

The target in data set [4] is T1, p32 (gC1qR) wild-type. Briefly: competition.
For data set [5], the target named is T1, p32 (gC1qR) wild-type. Briefly: EMSA. The source holds these as a separate data set.
Data set [6] concerns the target T1, p32 (gC1qR) wild-type. The data set can be described thus: competition. The source holds these as a separate data set.

As to “mutant His-p32 (K89A/K93A) (from UniProt O35658 71-278) (natural protein)”, in data set [1], the stoichiometry N worked out at 3.
Molecule “wild-type His-p32 (from UniProt O35658 71-278) (natural protein)” came in with a stoichiometry N in data set [2] of 3.
As to GUUUACGGUGCUA (ssRNA) [14-mer RNA (random)], the binding result in data set [3] was “binds”.
For AAAAAAAAAAAAAAAAAAAAAA (ssDNA) [22-mer poly(A) DNA], the binding result in data set [4] is recorded as “no binding”.
As for AAAAAAAAAAAAAAAAAAAAAA (ssRNA) [22-mer poly(A) RNA], the Kd in data set [5] was approximately 6 µM.
GGGAGAAAAACAAAACAAAACAAAACUAGCACCGUAAAGC (ssRNA) [40-mer RNA (random)]: the binding result in data set [6] is “binds”.
